# Laboratory results as given in patent publication US20220098635A1.
# What was measured:
# Thiolated streptavidin [1] = molecular target: Thiolated streptavidin (UniProt P22629); experiment: single-molecule conductance distribution (counts against Log G, fitted peaks); two-Avitag phi29 polymerase without flexible linker wired with biotin-streptavidin; the same distribution as 52 in Fig. 5B
# Thiolated streptavidin [2] = molecular target: Thiolated streptavidin (UniProt P22629); experiment: single-molecule conductance distribution (counts against Log G, fitted peaks); bis-biotinylated phi29 polymerase in a junction of palladium electrodes coated with thiolated streptavidin
# Chain of Thiolated streptavidin (P22629 37-163 limits assumed): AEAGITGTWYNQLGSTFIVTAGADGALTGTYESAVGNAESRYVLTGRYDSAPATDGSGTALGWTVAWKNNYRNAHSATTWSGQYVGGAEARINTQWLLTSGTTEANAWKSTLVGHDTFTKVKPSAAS
substance,measurement,setting,value
bis-biotinylated ϕ29 polymerase (from UniProt P03680 1-111; P03680 112-279; P03680 280-575) (enzyme),conductance peak (circled feature 1103),Thiolated streptavidin [1],3.98 nS
same,conductance peak (circled feature 53),Thiolated streptavidin [2],3.98 nS
